Reference: patent publication US20240100181A1 (AbbVie / Abbott, published 2024)

T1: human CD19 (human, UniProt P15391 20-556)
T1 sequence (looked up): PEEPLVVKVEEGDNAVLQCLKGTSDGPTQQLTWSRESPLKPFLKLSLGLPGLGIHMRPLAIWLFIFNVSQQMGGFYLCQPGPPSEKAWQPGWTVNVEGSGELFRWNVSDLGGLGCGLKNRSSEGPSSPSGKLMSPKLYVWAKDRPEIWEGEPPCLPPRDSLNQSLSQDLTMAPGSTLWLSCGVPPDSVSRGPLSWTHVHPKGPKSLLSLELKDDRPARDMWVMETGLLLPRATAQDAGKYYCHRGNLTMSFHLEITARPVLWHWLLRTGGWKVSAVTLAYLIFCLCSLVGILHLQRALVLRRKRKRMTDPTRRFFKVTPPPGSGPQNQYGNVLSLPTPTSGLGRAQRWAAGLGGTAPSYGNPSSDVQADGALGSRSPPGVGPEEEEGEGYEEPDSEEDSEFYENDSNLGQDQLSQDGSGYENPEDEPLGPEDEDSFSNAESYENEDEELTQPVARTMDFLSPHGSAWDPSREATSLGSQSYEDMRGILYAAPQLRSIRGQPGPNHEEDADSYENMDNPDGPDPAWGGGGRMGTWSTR


Key:
human CD19 [1] = molecular target: T1, human CD19; assay: cell-based or functional assay
[2] = molecular target: FcγRIIIa V158 variant (high-affinity allotype) (human, UniProt P08637 17-254); assay: cell-based or functional assay
human CD19 [3] = molecular target: T1, human CD19; assay: cell-based or functional assay; remark: listed apart in the source
[4] = molecular target: FcγRIIIa F158 variant (low-affinity allotype) (human, UniProt P08637 17-254); assay: cell-based or functional assay
human CD19 [5] = molecular target: T1, human CD19; assay: flow cytometry on SUP-B15 (ALL) cells, endogenous CD19; average of two experiments
human CD19 [6] = molecular target: T1, human CD19; assay: flow cytometry on OCI-LY19 (DLBCL) cells, endogenous CD19; average of two experiments
human CD19 [7] = molecular target: T1, human CD19; assay: flow cytometry on RS4; 11 (ALL) cells, endogenous CD19; average of two experiments
human CD19 [8] = molecular target: T1, human CD19; assay: flow cytometry on Raji (BL) cells, endogenous CD19; average of two experiments

Sequence of FcγRIIIa F158 variant (low-affinity allotype) (P08637 17-254, change not shown): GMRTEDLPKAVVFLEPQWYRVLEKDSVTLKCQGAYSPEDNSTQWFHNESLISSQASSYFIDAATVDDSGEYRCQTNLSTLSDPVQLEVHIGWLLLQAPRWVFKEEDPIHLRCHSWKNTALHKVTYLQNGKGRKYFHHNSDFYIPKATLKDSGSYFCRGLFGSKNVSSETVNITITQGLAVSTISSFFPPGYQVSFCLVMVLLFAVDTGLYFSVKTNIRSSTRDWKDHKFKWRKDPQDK
Sequence of FcγRIIIa V158 variant (high-affinity allotype) (P08637 other isoform, or with tags, fused parts or gaps mutant limits assumed): as the sequence (P08637 17-254, change not shown) above, with F160V counted along it

Binder	anti-proliferative assay EC50, KARPAS422 (DLBCL) (human CD19 [1]) [nM]	anti-proliferative assay EC50, OCI-LY19 (DLBCL) (human CD19 [1]) [nM]	anti-proliferative assay EC50, RS4; 11 (ALL) (human CD19 [1]) [nM]	anti-proliferative assay EC50, SU-DHL-6 (DLBCL) (human CD19 [1]) [nM]	anti-proliferative assay EC50, SUP-B15 (ALL) (human CD19 [1]) [nM]	ADCC NFAT reporter activation (Jurkat reporter cells, Raji target cells) [2] [nM]	PBMC co-culture ADCC, specific lysis EC50 (RS4; 11, Raji, KARPAS422) (human CD19 [3]) [nM]	ADCC NFAT reporter activation (Jurkat reporter cells, Raji target cells) [4] [nM]	EC50 (human CD19 [5]) [nM]	EC50 (human CD19 [6]) [nM]	EC50 (human CD19 [7]) [nM]	EC50 (human CD19 [8]) [nM]
ADC-1 (CD19 Phosphorylated GRM agonist ADC: CD19 mAb conjugated to the drug linker of Formula V) (other, zero or one phosphate-GRM drug linker molecule (Formula V) attached via cysteine -S-; cysteine position not stated; afucosylated at ASN-300 (EU: ASN-297); zero, one, two or three phosphate-GRM drug linker molecules (Formula V, Ala-Ala linker) attached via cysteine -S-; cysteine positions not stated) heavy: EVQLVESGGGLVQPGGSLRLSCAASGFTFTTYWINWVRQAPGKGLEWIGNIYPSDSYTNYNQKFKDRATLSVDKSKNTAYLQMNSLRAEDTAVYYCTREDYYGSSSYYAMDYWGQGTLVTVSSASTKGPSVFPLAPSSKSTSGGTAALGCLVKDYFPEPVTVSWNSGALTSGVHTFPAVLQSSGLYSLSSVVTVPSSSLGTQTYICNVNHKPSNTKVDKKVEPKSCDKTHTCPPCPAPELLGGPSVFLFPPKPKDTLMISRTPEVTCVVVDVSHEDPEVKFNWYVDGVEVHNAKTKPREEQYNGSTYRVVSVLTVLHQDWLNGKEYKCKVSNKALPAPIEKTISKAKGQPREPQVYTLPPSREEMTKNQVSLTCLVKGFYPSDIAVEWESNGQPENNYKTTPPVLDSDGSFFLYSKLTVDKSRWQQGNVFSCSVMHEALHNHYTQKSLSLSPGK light: AILMTQSPSSLSASVGDRVTITCKASQDVGTAVAWYQQKPGKAPKLLIYWASTRHTGVPSRFSGSGSGTDFTLTISSLQPEDFATYYCQQYSTYPLTFGQGTKVEIKRTVAAPSVFIFPPSDEQLKSGTASVVCLLNNFYPREAKVQWKVDNALQSGNSQESVTEQDSKDSTYSLSSTLTLSKADYEKHKVYACEVTHQGLSSPVTKSFNRGEC	0.21	103	0.082	0.311	0.321	0.017	0.07 to 0.142	0.018				
CD19 mAb (humanized, afucosylated anti-CD19 IgG1 kappa monoclonal antibody of Example 1) (antibody, afucosylated N-glycan at ASN-300 (EU: ASN-297), greater than or equal to 90% afucosylated, Human IgG1, kappa; Made in CHO cells expressing Pseudomonas RMD; also called CD19 antibody; humanized anti-CD19 antibody) heavy: EVQLVESGGGLVQPGGSLRLSCAASGFTFTTYWINWVRQAPGKGLEWIGNIYPSDSYTNYNQKFKDRATLSVDKSKNTAYLQMNSLRAEDTAVYYCTREDYYGSSSYYAMDYWGQGTLVTVSSASTKGPSVFPLAPSSKSTSGGTAALGCLVKDYFPEPVTVSWNSGALTSGVHTFPAVLQSSGLYSLSSVVTVPSSSLGTQTYICNVNHKPSNTKVDKKVEPKSCDKTHTCPPCPAPELLGGPSVFLFPPKPKDTLMISRTPEVTCVVVDVSHEDPEVKFNWYVDGVEVHNAKTKPREEQYNGSTYRVVSVLTVLHQDWLNGKEYKCKVSNKALPAPIEKTISKAKGQPREPQVYTLPPSREEMTKNQVSLTCLVKGFYPSDIAVEWESNGQPENNYKTTPPVLDSDGSFFLYSKLTVDKSRWQQGNVFSCSVMHEALHNHYTQKSLSLSPGK light: AILMTQSPSSLSASVGDRVTITCKASQDVGTAVAWYQQKPGKAPKLLIYWASTRHTGVPSRFSGSGSGTDFTLTISSLQPEDFATYYCQQYSTYPLTFGQGTKVEIKRTVAAPSVFIFPPSDEQLKSGTASVVCLLNNFYPREAKVQWKVDNALQSGNSQESVTEQDSKDSTYSLSSTLTLSKADYEKHKVYACEVTHQGLSSPVTKSFNRGEC						0.027		0.023	0.683	0.836	0.401	0.713
